Measured values reported in patent US20160175358A1.

Target: δ1 TCR on δ1 T-cells in PBMCs (human) (UniProt O00548)
Test: cell-based or functional assay

Sequence of UniProt O00548 (O00548 18-723, stated change not applied): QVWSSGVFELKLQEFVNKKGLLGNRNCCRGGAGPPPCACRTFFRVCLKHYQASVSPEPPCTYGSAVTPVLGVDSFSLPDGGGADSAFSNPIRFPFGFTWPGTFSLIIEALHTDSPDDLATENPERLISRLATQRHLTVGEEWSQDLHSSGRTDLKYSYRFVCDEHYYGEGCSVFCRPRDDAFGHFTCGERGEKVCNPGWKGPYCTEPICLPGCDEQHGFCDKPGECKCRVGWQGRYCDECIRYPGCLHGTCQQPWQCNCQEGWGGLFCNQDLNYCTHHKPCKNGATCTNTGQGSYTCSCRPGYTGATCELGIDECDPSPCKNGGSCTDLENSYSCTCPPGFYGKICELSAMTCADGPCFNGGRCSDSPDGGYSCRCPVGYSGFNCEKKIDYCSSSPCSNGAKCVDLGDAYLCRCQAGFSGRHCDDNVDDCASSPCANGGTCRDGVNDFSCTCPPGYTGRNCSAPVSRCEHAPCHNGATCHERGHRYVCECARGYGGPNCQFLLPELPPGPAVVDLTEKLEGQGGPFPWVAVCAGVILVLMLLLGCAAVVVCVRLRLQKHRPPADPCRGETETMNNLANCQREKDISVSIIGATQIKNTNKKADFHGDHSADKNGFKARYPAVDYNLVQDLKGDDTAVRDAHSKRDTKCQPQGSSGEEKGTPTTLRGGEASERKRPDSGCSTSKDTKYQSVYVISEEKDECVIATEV

induced proliferation, relative to TS8.2: 3 fold
Substance: anti-TCR Vδ1 TS-1 antibody
